“And” between values parts separate entries of the source, which are not always exact repeats. Equal values may be shown once.
Key:
[1] = target: PfuMoaB-H3 variant (α3-helix exchanged against the corresponding helix of E. coli MogA) (Pyrococcus furiosus) (UniProt Q8U3T3); test: cross-linking; 0.5 mg/ml protein, 1.5 mM BS3, 20 mM sodium phosphate pH 8.0, 0.2 M NaCl, 30 min; SDS-PAGE
[2] = target: PfuMoaB-H3 variant (α3-helix exchanged against the corresponding helix of E. coli MogA) (Pyrococcus furiosus) (UniProt Q8U3T3); test: cross-linking; 0.5 mg/ml protein, 2 mM EDC, 0.1 M MES pH 6.0, 0.5 M NaCl, 3 h; SDS-PAGE; trimer bands analysed by LC-MS/MS
[3] = target: PfuMoaB-H3 variant (α3-helix exchanged against the corresponding helix of E. coli MogA) (Pyrococcus furiosus) (UniProt Q8U3T3); test: SEC; analytical Superdex 200 10/300, 0.1 M Tris pH 8.0, 0.2 M NaCl, 0.5 ml/min, 4°C; 5-10 nmol of Ni-NTA purified protein; masses by standard proteins
[4] = target: the molecule itself; test: cross-linking; 0.5 mg/ml protein, 2 mM EDC, 0.1 M MES pH 6.0, 0.5 M NaCl, 3 h; SDS-PAGE; trimer bands analysed by LC-MS/MS
[5] = target: the molecule itself; test: crystal structure; space group P3(1)21, three chains in the asymmetric unit, hexamer by the two-fold crystallographic axis; crystals from 0.1 MES pH 6.0, 40% PEG 400, 5% PEG 3000, 20°C; 2.5 Å
[6] = target: the molecule itself; test: SEC; analytical Superdex 200 10/300, 0.1 M Tris pH 8.0, 0.2 M NaCl, 0.5 ml/min, 4°C; 5-10 nmol of Ni-NTA purified protein; masses by standard proteins
[7] = target: the molecule itself; test: SEC; preparative Superdex 200 16/60 pg, Ni-NTA purified protein; fractions analysed by SDS-PAGE

## PfuMoaB-H3 variant (α3-helix exchanged against the corresponding helix of E. coli MogA) (from UniProt Q8U3T3 1-169) (enzyme)
[1]
  stoichiometry N: 3 and 2
[2]
  stoichiometry N: 2 and 3
[3]
  stoichiometry N: 3 and 2

B1: Pyrococcus furiosus MPT-adenylyl-transferase MoaB, wild type (enzyme)
chain: MGVEEHKKEAPKTFKFGVITVSDKGAKGEREDKSGPLIIEELSKLGEHVYYKIVPDDKIEVLIALFEAIKSGADVVVTTGGTGITRRDITIESIKPLFDKELSFGEVFRAKSYEEVGYATVLTRATAGIIRGQERIVVVFSLPGSVNAVKTGLEIIKSEVFHILKHARE
notes: MoaB, MPT-adenylyl-transferase of Pyrococcus furiosus; residues from 1 on are in the construct (1-9/10/11 disordered in the crystal), Glu169 is named; predicted mass with tag 19,971.95 Da; also called PfuMoaB; PfuMoaB-WT; source: E. coli BL21(DE3), purified (Ni-NTA); not shown: His-tag, N-terminal, kept
[4]
  stoichiometry N: 3 and 2
[5]
  stoichiometry N: 6

B2: E. coli MoaB (natural protein, Escherichia coli, UniProt P0AEZ9 1-170, looked up)
chain: MSQVSTEFIPTRIAILTVSNRRGEEDDTSGHYLRDSAQEAGHHVVDKAIVKENRYAIRAQVSAWIASDDVQVVLITGGTGLTEGDQAPEALLPLFDREVEGFGEVFRMLSFEEIGTSTLQSRAVAGVANKTLIFAMPGSTKACRTAWENIIAPQLDARTRPCNFHPHLKK
notes: MoaB of Escherichia coli; also called EcoMoaB; source: E. coli, purified (Ni-NTA)
[6]
  stoichiometry N: 6

B3: E. coli MogA (enzyme, Escherichia coli, UniProt P0AF03 1-195, looked up)
chain: MNTLRIGLVSISDRASSGVYQDKGIPALEEWLTSALTTPFELETRLIPDEQAIIEQTLCELVDEMSCHLVLTTGGTGPARRDVTPDATLAVADREMPGFGEQMRQISLHFVPTAILSRQVGVIRKQALILNLPGQPKSIKETLEGVKDAEGNVVVHGIFASVPYCIQLLEGPYVETAPEVVAAFRPKSARRDVSE
notes: MogA, MPT-adenylyl-transferase of Escherichia coli; also called EcoMogA; MogA (E. coli); source: E. coli, purified (Ni-NTA); not shown: His-tag, N-terminal, kept
[6]
  stoichiometry N: 3

B4: G-domain of A. thaliana Cnx1 (domain or fragment, Arabidopsis thaliana)
chain: VPGPEYKVAILTVSDTVSAGAGPDRSGPRAVSVVDSSSEKLGGAKVVATAVVPDEVERIKDILQKWSDVDEMDLILTLGGTGFTPRDVTPEATKKVIERETPGLLFVMMQESLKITPFAMLSRSAAGIRGSTLIINMPGNPNAVAECMEALLPALKHALKQIKGDKR
notes: G domain of the molybdenum cofactor biosynthesis protein Cnx1 of Arabidopsis thaliana; also called AthCnx1G; Cnx1G; source: E. coli, purified (Ni-NTA)
[6]
  stoichiometry N: 3

B5: PfuMoaB I59R/I63R/F66R variant (enzyme, Pyrococcus furiosus)
chain: MGVEEHKKEAPKTFKFGVITVSDKGAKGEREDKSGPLIIEELSKLGEHVYYKIVPDDKREVLRALREAIKSGADVVVTTGGTGITRRDITIESIKPLFDKELSFGEVFRAKSYEEVGYATVLTRATAGIIRGQERIVVVFSLPGSVNAVKTGLEIIKSEVFHILKHARE
notes: MoaB of Pyrococcus furiosus with three arginines in the α3-helix; Increased tendency to precipitation was observed
[7]
  binding result: binds
